Substitutions are numbered along the chain they refer to. Names and notes keep the numbering of the source.
Assays:
Human CD96 D1 (human) = Human CD96 D1 (human) (UniProt P40200); experiment: SEC-MALS
Mouse CD96 D1 (mouse) = Mouse CD96 D1 (mouse) (UniProt Q3U0X8); experiment: SEC-MALS
SEC-MALS = target: the molecule itself; experiment: SEC-MALS
Mouse CD96 D1 [1] = target: T1, Mouse CD96 D1 (mouse, UniProt Q3U0X8); experiment: SPR
Mouse CD96 D1 [2] = target: T1, Mouse CD96 D1; experiment: SEC-MALS

Molecule: Human CD155 (from UniProt P15151 21-417) (ligand)
- stoichiometry N (Human CD96 D1 (human)): 1

Molecule: Mouse CD155 (ligand)
- stoichiometry N (Mouse CD96 D1 (mouse)): 1

B1: Mouse CD96 D1 (domain or fragment, UniProt Q3U0X8 22-134, looked up)
chain: VWEELFNVGDDVYALPGSDINLTCQTKEKNFLVQMQWSKVTDKNDMIALYHPQYGLYCGQEHACESQVAATETEKGVTNWTLYLRNISSALGGKYECIFTLYPEGIKTTVYNL
- stoichiometry N (SEC-MALS): 2

B2: Human CD96 D1 (domain or fragment, UniProt P40200 22-140, looked up)
chain: VWEKTVNTEENVYATLGSDVNLTCQTQTVGFFVQMQWSKVTNKIDLIAVYHPQYGFYCAYGRPCESLVTFTETPENGSKWTLHLRNMSCSVSGRYECMLVLYPEGIQTKIYNLLIQTHV
- stoichiometry N (SEC-MALS): 2

B3: mCD96-A heavy-chain G56K (Fab, V domains shown)
VH: QVQLKESGPGLVQPSQTLSLTCTVSGLSLTTNSVSWIRQPPGKGLEWMGVIWSNGKTDYNSDIKSRLSISRDTSKSQVFLKMNSLQTEDTAMYFCARNFPYPGINFDWGQGVMVTVSS
VL: QAVVTQESALTTLPGGTVTLTCHSSTGAVTTSNYANWIQEKADHSFTAILGGTSNRAPGTPARFSGSLLEGKAALTITGAQVEDEATYFCSLWYSGHLIFGGGTKLTVK
- binding result (Mouse CD96 D1 [1]): binds

B4: mCD96-A heavy-chain F101M (Fab, V domains shown)
VH: B3 VH with K56G, F106M
VL: B3 VL
- binding result (Mouse CD96 D1 [1]): binds

B5: mCD96-A-7 Fab (Fab, V domains shown)
VH: B3 VH with F106M
VL: B3 VL with G52H
- stoichiometry N (Mouse CD96 D1 [2]): 1

B6: mCD96-A light-chain G50H (Fab, V domains shown)
VH: B3 VH with K56G
VL: B3 VL with G52H
- binding result (Mouse CD96 D1 [1]): binds

B7: mCD96-A Fab (Fab, V domains shown)
VH: B3 VH with K56G
VL: B3 VL
- stoichiometry N (Mouse CD96 D1 [2]): 1

B8: Human CD96 D1-D3 (domain or fragment, UniProt P40200 22-519, looked up)
chain: VWEKTVNTEENVYATLGSDVNLTCQTQTVGFFVQMQWSKVTNKIDLIAVYHPQYGFYCAYGRPCESLVTFTETPENGSKWTLHLRNMSCSVSGRYECMLVLYPEGIQTKIYNLLIQTHVTADEWNSNHTIEIEINQTLEIPCFQNSSSKISSEFTYAWSVENSSTDSWVLLSKGIKEDNGTQETLISQNHLISNSTLLKDRVKLGTDYRLHLSPVQIFDDGRKFSCHIRVGPNKILRSSTTVKVFAKPEIPVIVENNSTDVLVERRFTCLLKNVFPKANITWFIDGSFLHDEKEGIYITNEERKGKDGFLELKSVLTRVHSNKPAQSDNLTIWCMALSPVPGNKVWNISSEKITFLLGSEISSTDPPLSVTESTLDTQPSPASSVSPARYPATSSVTLVDVSALRPNTTPQPSNSSMTTRGFNYPWTSSGTDTKKSVSRIPSETYSSSPSGAGSTLHDNVFTSTARAFSEVPTTANGSTKTNHVHITGIVVNKPKDGM
- stoichiometry N (SEC-MALS): 2

B9: Mouse CD96 D1-D3 (domain or fragment, UniProt Q3U0X8 22-536, looked up)
chain: VWEELFNVGDDVYALPGSDINLTCQTKEKNFLVQMQWSKVTDKNDMIALYHPQYGLYCGQEHACESQVAATETEKGVTNWTLYLRNISSALGGKYECIFTLYPEGIKTTVYNLIVEPYTQDEHNYTIEIETNRTLEIPCFQNTSSEIPPRFTFSWLVEKDGVEEVLFTHHHHVNNSTSFKGRIRLGGDYRLHLSPVQIQDDGRTFSCHLTVNPLKAWKMSTTVKVFAKPEILMTVENSTMDVLGERVFTCLLKNVFPKANITWFIDGRFLQGNEEGIYITNEEKNCSSGFWELKSVLTRMHSGPSQSNNMTAWCMALSPGPRNKMWNTSSQPITVSFDSVIAPTKHLPTVTGSTLGTQPFSDAGVSPTGYLATPSVTIVDENGLTPDATPQTSNSSMTTKDGNYLEASSGTDAKNSSRAAASSKSGSWPFPFTSPPEWHSLPGTSTGPQEPDSPVSWIPSEVHTSAPLDASLAPHDTIISTTTEFPNVLTTANGTTKIDHGPITSIIVNQPSDGM
- stoichiometry N (SEC-MALS): 2
